The text below walks through data of article PMC13137973 (2026).

The assay addresses T1, Biotinylated human TNFR2 protein (human, UniProt P20333-1 23-257, biotin (commercial biotinylation kit)).
T1 chain: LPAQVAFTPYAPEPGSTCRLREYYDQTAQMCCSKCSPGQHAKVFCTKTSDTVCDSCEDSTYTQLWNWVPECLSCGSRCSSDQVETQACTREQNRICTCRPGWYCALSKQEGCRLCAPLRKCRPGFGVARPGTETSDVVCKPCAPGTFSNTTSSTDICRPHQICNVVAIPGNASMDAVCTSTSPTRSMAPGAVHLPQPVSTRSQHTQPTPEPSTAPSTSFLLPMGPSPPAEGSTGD
The assay can be described thus: BLI.

What is called koff is a measure of how fast the partners let go of each other. Read a low koff as slow dissociation.

B1: human immunodeficiency virus 1 (HIV-1) (group M, subtype B, Isolate MN) gp120 Protein (natural protein)
chain: not shown
Regarding B1, the off-rate (koff) was found to be 0.00623 s⁻¹.
